Test results: US20080020978A1 (Amgen, published 2008)
Square brackets hold non-standard residues; d marks the D form. Tpi = O=C(O)[C@@H]1Cc2c([nH]c3ccccc23)CN1; Oic = O=C(O)[C@@H]1C[C@@H]2CCCC[C@@H]2N1; hArg = N=C(N)NCCCC[C@H](N)C(=O)O; Cit = NC(=O)NCCC[C@H](N)C(=O)O; Aib = CC(C)(N)C(=O)O

B1: SEQ ID NO 676 (peptide)
peptide: Ac-WVTH[Cit]LAGLLS[Cit]SGGVV[hArg]KNFVPTDVGP[Tpi]AF-NH2
SMILES: CC(=O)N[C@@H](Cc1c[nH]c2ccccc12)C(=O)N[C@H](C(=O)N[C@H](C(=O)N[C@@H](Cc1c[nH]cn1)C(=O)N[C@@H](CCCNC(N)=O)C(=O)N[C@@H](CC(C)C)C(=O)N[C@@H](C)C(=O)NCC(=O)N[C@@H](CC(C)C)C(=O)N[C@@H](CC(C)C)C(=O)N[C@@H](CO)C(=O)N[C@@H](CCCNC(N)=O)C(=O)N[C@@H](CO)C(=O)NCC(=O)NCC(=O)N[C@H](C(=O)N[C@H](C(=O)N[C@@H](CCCCNC(=N)N)C(=O)N[C@@H](CCCCN)C(=O)N[C@@H](CC(N)=O)C(=O)N[C@@H](Cc1ccccc1)C(=O)N[C@H](C(=O)N1CCC[C@H]1C(=O)N[C@H](C(=O)N[C@@H](CC(=O)O)C(=O)N[C@H](C(=O)NCC(=O)N1CCC[C@H]1C(=O)N1Cc2[nH]c3ccccc3c2C[C@H]1C(=O)N[C@@H](C)C(=O)N[C@@H](Cc1ccccc1)C(N)=O)C(C)C)[C@@H](C)O)C(C)C)C(C)C)C(C)C)[C@@H](C)O)C(C)C
B2: SEQ ID NO 673 (peptide)
peptide: Ac-WVTH[Cit]LAGLLS[Cit]SGGVV[hArg]KNFVPTDVG[Tpi]FAF-NH2
SMILES: CC(=O)N[C@@H](Cc1c[nH]c2ccccc12)C(=O)N[C@H](C(=O)N[C@H](C(=O)N[C@@H](Cc1c[nH]cn1)C(=O)N[C@@H](CCCNC(N)=O)C(=O)N[C@@H](CC(C)C)C(=O)N[C@@H](C)C(=O)NCC(=O)N[C@@H](CC(C)C)C(=O)N[C@@H](CC(C)C)C(=O)N[C@@H](CO)C(=O)N[C@@H](CCCNC(N)=O)C(=O)N[C@@H](CO)C(=O)NCC(=O)NCC(=O)N[C@H](C(=O)N[C@H](C(=O)N[C@@H](CCCCNC(=N)N)C(=O)N[C@@H](CCCCN)C(=O)N[C@@H](CC(N)=O)C(=O)N[C@@H](Cc1ccccc1)C(=O)N[C@H](C(=O)N1CCC[C@H]1C(=O)N[C@H](C(=O)N[C@@H](CC(=O)O)C(=O)N[C@H](C(=O)NCC(=O)N1Cc2[nH]c3ccccc3c2C[C@H]1C(=O)N[C@@H](Cc1ccccc1)C(=O)N[C@@H](C)C(=O)N[C@@H](Cc1ccccc1)C(N)=O)C(C)C)[C@@H](C)O)C(C)C)C(C)C)C(C)C)[C@@H](C)O)C(C)C
B3: SEQ ID NO 665 (peptide)
peptide: Ac-WVTH[Cit]LAGLLS[Cit]SGGVV[Cit]KNFVPTDVG[Oic]KAF-NH2
SMILES: CC(=O)N[C@@H](Cc1c[nH]c2ccccc12)C(=O)N[C@H](C(=O)N[C@H](C(=O)N[C@@H](Cc1c[nH]cn1)C(=O)N[C@@H](CCCNC(N)=O)C(=O)N[C@@H](CC(C)C)C(=O)N[C@@H](C)C(=O)NCC(=O)N[C@@H](CC(C)C)C(=O)N[C@@H](CC(C)C)C(=O)N[C@@H](CO)C(=O)N[C@@H](CCCNC(N)=O)C(=O)N[C@@H](CO)C(=O)NCC(=O)NCC(=O)N[C@H](C(=O)N[C@H](C(=O)N[C@@H](CCCNC(N)=O)C(=O)N[C@@H](CCCCN)C(=O)N[C@@H](CC(N)=O)C(=O)N[C@@H](Cc1ccccc1)C(=O)N[C@H](C(=O)N1CCC[C@H]1C(=O)N[C@H](C(=O)N[C@@H](CC(=O)O)C(=O)N[C@H](C(=O)NCC(=O)N1[C@H](C(=O)N[C@@H](CCCCN)C(=O)N[C@@H](C)C(=O)N[C@@H](Cc2ccccc2)C(N)=O)C[C@@H]2CCCC[C@@H]21)C(C)C)[C@@H](C)O)C(C)C)C(C)C)C(C)C)[C@@H](C)O)C(C)C
B4: SEQ ID NO 662 (peptide)
peptide: Ac-LAGLLS[Cit]SGGVV[hArg]KNFVPTDVG[Oic]FAF-NH2
SMILES: CC(=O)N[C@@H](CC(C)C)C(=O)N[C@@H](C)C(=O)NCC(=O)N[C@@H](CC(C)C)C(=O)N[C@@H](CC(C)C)C(=O)N[C@@H](CO)C(=O)N[C@@H](CCCNC(N)=O)C(=O)N[C@@H](CO)C(=O)NCC(=O)NCC(=O)N[C@H](C(=O)N[C@H](C(=O)N[C@@H](CCCCNC(=N)N)C(=O)N[C@@H](CCCCN)C(=O)N[C@@H](CC(N)=O)C(=O)N[C@@H](Cc1ccccc1)C(=O)N[C@H](C(=O)N1CCC[C@H]1C(=O)N[C@H](C(=O)N[C@@H](CC(=O)O)C(=O)N[C@H](C(=O)NCC(=O)N1[C@H](C(=O)N[C@@H](Cc2ccccc2)C(=O)N[C@@H](C)C(=O)N[C@@H](Cc2ccccc2)C(N)=O)C[C@@H]2CCCC[C@@H]21)C(C)C)[C@@H](C)O)C(C)C)C(C)C)C(C)C
B5: SEQ ID NO 660 (peptide)
peptide: Ac-VTH[Cit]LAGLLS[Cit]SGGVV[hArg]KNFVPTDVG[Oic]FAF-NH2
SMILES: CC(=O)N[C@H](C(=O)N[C@H](C(=O)N[C@@H](Cc1c[nH]cn1)C(=O)N[C@@H](CCCNC(N)=O)C(=O)N[C@@H](CC(C)C)C(=O)N[C@@H](C)C(=O)NCC(=O)N[C@@H](CC(C)C)C(=O)N[C@@H](CC(C)C)C(=O)N[C@@H](CO)C(=O)N[C@@H](CCCNC(N)=O)C(=O)N[C@@H](CO)C(=O)NCC(=O)NCC(=O)N[C@H](C(=O)N[C@H](C(=O)N[C@@H](CCCCNC(=N)N)C(=O)N[C@@H](CCCCN)C(=O)N[C@@H](CC(N)=O)C(=O)N[C@@H](Cc1ccccc1)C(=O)N[C@H](C(=O)N1CCC[C@H]1C(=O)N[C@H](C(=O)N[C@@H](CC(=O)O)C(=O)N[C@H](C(=O)NCC(=O)N1[C@H](C(=O)N[C@@H](Cc2ccccc2)C(=O)N[C@@H](C)C(=O)N[C@@H](Cc2ccccc2)C(N)=O)C[C@@H]2CCCC[C@@H]21)C(C)C)[C@@H](C)O)C(C)C)C(C)C)C(C)C)[C@@H](C)O)C(C)C

Molecular target: CGRP1 receptor (CRLR/RAMP1 complex) of human neuroblastoma SK-N-MC cells (human, UniProt Q16602 23-461; O60894 27-148)
Sequence (Q16602 23-461, chain 1 of 2): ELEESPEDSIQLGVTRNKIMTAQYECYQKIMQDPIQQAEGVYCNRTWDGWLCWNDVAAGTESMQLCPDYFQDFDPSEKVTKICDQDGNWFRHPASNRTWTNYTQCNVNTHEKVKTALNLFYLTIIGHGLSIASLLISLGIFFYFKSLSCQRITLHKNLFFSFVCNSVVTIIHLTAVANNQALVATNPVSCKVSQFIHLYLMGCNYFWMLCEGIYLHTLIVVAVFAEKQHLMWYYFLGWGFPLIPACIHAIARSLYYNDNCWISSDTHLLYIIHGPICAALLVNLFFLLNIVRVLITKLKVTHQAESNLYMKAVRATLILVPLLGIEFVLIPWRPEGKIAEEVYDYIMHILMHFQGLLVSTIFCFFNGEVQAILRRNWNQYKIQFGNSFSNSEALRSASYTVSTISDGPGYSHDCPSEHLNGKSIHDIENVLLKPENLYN
Sequence (O60894 27-148, chain 2 of 2): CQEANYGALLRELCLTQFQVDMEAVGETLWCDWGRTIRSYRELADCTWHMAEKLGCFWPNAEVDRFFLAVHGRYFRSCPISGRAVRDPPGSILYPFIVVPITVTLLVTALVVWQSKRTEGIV
Assay: cell-based or functional assay

Compared with WVTHXLAGLLSXSGGVVXKNFVPTDVGXFAF (AC-WVTH[Cit]LAGLLS[Cit]SGGVV[hArg]KNFVPTDVG[Pip]FAF-NH2) [SEQ ID NO 666], WVTHXLAGLLSXSGGVVXKNFVPTDVGXFAF (AC-WVTH[Cit]LAGLLS[Cit]SGGVV[hArg]KNFVPTDVG[Hyp]FAF-NH2) [SEQ ID NO 668] is 1.9-fold lower in “IC50” value: 11.2 nM for the first, 6.01 nM for the second.

Going from WVTHXLAGLLSXSGGVVXKNFVXTDVGXFAX (Ac-WVTH[Cit]LAGLLS[Cit]SGGVV[hArg]KNFV[Oic]TDVG[Oic]FA[2-Nal]-NH2) [SEQ ID NO 132] to WVTHXLAGLLSXSGGVVXKNFVPTDVGXFAF (Ac-WVTH[Cit]LAGLLS[Cit]SGGVV[hArg]KNFVPTDVG[Hyp]FAF-NH2) [SEQ ID NO 667], the “IC50” value rises from 2.57 nM to 6.62 nM (2.6-fold).

Going from WVTHXLAGLLSXSGGVVXKNFVXTDVGPXAF (Ac-WVTH[Cit]LAGLLS[Cit]SGGVV[hArg]KNFV[Oic]TDVGP[Bip]AF-NH2) [SEQ ID NO 134] to WVTHXLAGLLSXSGGVVXKNFVPTDVGPXAF (Ac-WVTH[Cit]LAGLLS[Cit]SGGVV[hArg]KNFVPTDVGP[Tic]AF-NH2) [SEQ ID NO 131], the “IC50” value rises from 3.85 nM to 89.9 nM (23-fold).

Going from WVTHXLAGLLSXSGGVVXKNFVXTDVGPFAX (Ac-WVTH[Cit]LAGLLS[Cit]SGGVV[hArg]KNFV[Oic]TDVGPFA[2-Nal]-NH2) [SEQ ID NO 135] to WVTHXLAGLLSXSGGVVXKNFVPTDVGXXAF (Ac-WVTH[Cit]LAGLLS[Cit]SGGVV[hArg]KNFVPTDVG[Pip][1-Nal]AF-NH2) [SEQ ID NO 675], the “IC50” value rises from 3.22 nM to 10.8 nM (3.4-fold).

Going from WVTHXLAGLLSXSGGVVXKNFVXTDVGPXAX (Ac-WVTH[Cit]LAGLLS[Cit]SGGVV[hArg]KNFV[Oic]TDVGP[1-Nal]A[2-Nal]-NH2) [SEQ ID NO 133] to B1, the “IC50” value rises from 2.73 nM to 79.3 nM (29-fold).

Compared with B2, B3 is 7.7-fold lower in “IC50” value: 28.9 nM for the first, 3.77 nM for the second.

Compared with Ac-WVTH[Cit]LAGLLS[Cit]SGGVV[hArg]KNFVPTDVG[Aib]FAF-NH2 [SEQ ID NO 670], B4 is 3.8-fold higher in “IC50” value: 4.37 nM for the first, 16.5 nM for the second.

Going from B5 to Ac-[Cit]LAGLLS[Cit]SGGVV[hArg]KNFVPTDVG[Oic]FAF-NH2 [SEQ ID NO 661], the “IC50” value rises from 3 nM to 8.74 nM (2.9-fold).
